Assay results reported in patent publication US20150038430A1 (published 2015).
Bridge positions count the residues as written; N and C are the ends.

Columns and labels:
Assay in all cases: MS-based binding affinity
Bcl-xL = Bcl-xL (UniProt Q07817 1-212)
Mcl-1 = target: Mcl-1
Bcl-2 = target: Bcl-2

Bcl-xL, sequence (Q07817 1-212): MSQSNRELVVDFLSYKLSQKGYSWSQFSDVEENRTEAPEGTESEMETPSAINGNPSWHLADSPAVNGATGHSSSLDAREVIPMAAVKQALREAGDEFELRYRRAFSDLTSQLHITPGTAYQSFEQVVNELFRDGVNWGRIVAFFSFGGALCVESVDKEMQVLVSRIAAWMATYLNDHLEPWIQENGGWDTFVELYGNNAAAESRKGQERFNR

B1: SP-4 (BIM-BH3 peptidomimetic macrocycle, Ac-IWIAQELR$IGD$FNAYYARR-NH2) (peptide)
peptide: Ac-IWIAQELRXIGDXFNAYYARR-NH2
modifications: staple 9-13; not fully specified (residues 9, 13); printed as Ac-IWIAQELR$IGD$FNAYYARR-NH2
For B1, the Kd (Bcl-xL) was < 100 nM.

B2: SP-4 BIM Stapled (peptide)
peptide: Ac-IWIAQELRXIGDXFNAYYARR-NH2
modifications: staple 9-13; not fully specified (residues 9, 13); printed as Ac-IWIAQELR$IGD$FNAYYARR-NH2
With B2 the Kd (Mcl-1) was < 100 nM and the Kd (Bcl-2) was < 100 nM.
